Laboratory results reported in doi:10.1101/2021.04.30.442189.

Target: T1, TRF2 (human), Q15554
T1 chain: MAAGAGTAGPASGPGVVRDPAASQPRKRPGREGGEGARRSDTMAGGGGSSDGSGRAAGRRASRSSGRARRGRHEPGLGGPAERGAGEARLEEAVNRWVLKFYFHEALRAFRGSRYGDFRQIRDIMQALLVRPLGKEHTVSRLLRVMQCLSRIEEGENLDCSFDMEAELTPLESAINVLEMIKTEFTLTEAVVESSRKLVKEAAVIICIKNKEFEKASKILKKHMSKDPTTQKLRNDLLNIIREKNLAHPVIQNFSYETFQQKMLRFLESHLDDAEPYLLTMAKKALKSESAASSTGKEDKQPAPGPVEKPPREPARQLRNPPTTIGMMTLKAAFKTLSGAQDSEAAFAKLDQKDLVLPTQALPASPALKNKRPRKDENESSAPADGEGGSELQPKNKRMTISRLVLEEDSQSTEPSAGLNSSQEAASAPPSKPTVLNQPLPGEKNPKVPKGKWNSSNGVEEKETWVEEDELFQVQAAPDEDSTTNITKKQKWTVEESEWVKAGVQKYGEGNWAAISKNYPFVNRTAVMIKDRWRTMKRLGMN
Conditions: remark: other sources report otherwise

- stoichiometry N: 2
B1: TRF2, Q15554 1-542 (natural protein)
chain: MAAGAGTAGPASGPGVVRDPAASQPRKRPGREGGEGARRSDTMAGGGGSSDGSGRAAGRRASRSSGRARRGRHEPGLGGPAERGAGEARLEEAVNRWVLKFYFHEALRAFRGSRYGDFRQIRDIMQALLVRPLGKEHTVSRLLRVMQCLSRIEEGENLDCSFDMEAELTPLESAINVLEMIKTEFTLTEAVVESSRKLVKEAAVIICIKNKEFEKASKILKKHMSKDPTTQKLRNDLLNIIREKNLAHPVIQNFSYETFQQKMLRFLESHLDDAEPYLLTMAKKALKSESAASSTGKEDKQPAPGPVEKPPREPARQLRNPPTTIGMMTLKAAFKTLSGAQDSEAAFAKLDQKDLVLPTQALPASPALKNKRPRKDENESSAPADGEGGSELQPKNKRMTISRLVLEEDSQSTEPSAGLNSSQEAASAPPSKPTVLNQPLPGEKNPKVPKGKWNSSNGVEEKETWVEEDELFQVQAAPDEDSTTNITKKQKWTVEESEWVKAGVQKYGEGNWAAISKNYPFVNRTAVMIKDRWRTMKRLGMN
